Test results reported in US20260263614A1, “ANTIBODY DRUG CONJUGATES THAT BIND CDCP1 AND USES THEREOF” (Pheon Therapeutics Ltd, priority 2022, published 2026).

Legend:
[1] = Comparative repeat-dose rat toxicity study; assay type: in vivo; settings: DAR 8 on a Trastuzumab backbone, 20 or 60 mg/kg
[2] = Control incubation in buffer without S9; settings: 5 μM ADC, pH 5.0
Description: Samples were analysed using LC/QE-orbitrap-MS.
The control incubations include each ADC without the addition of S9.

[3] = molecular target: T1, Papain (a Cathepsin B surrogate) (Carica papaya, UniProt P00784); settings: reaction with papain, 24 hours and 96 hours
T1 sequence (P00784 134-345): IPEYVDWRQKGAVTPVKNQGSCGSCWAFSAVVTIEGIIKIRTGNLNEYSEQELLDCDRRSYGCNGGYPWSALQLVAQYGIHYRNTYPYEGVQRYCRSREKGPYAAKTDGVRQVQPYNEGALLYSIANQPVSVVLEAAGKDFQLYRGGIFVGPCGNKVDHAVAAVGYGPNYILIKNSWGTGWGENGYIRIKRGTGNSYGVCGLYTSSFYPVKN

[4] = comparison value of another MMAE ADC; cited from earlier work
[5] = molecular target: T2, huCDCP1(F30-T667 Q525)-8×His_T3 (human, UniProt Q9H5V8 30-667); test: SPR, recombinant CDCP1 ECD
T2 construct: The construct name gives the limits F30-T667 and Q525; also called recombinant CDCP1 ECD; CDCP1 ECD

[6] = molecular target: T3, CDCP1 on antigen-positive cells (A427; CDCP1+ cells MDA-MB-468, PC3, DU145) (Homo sapiens (Human), UniProt Q9H5V8 30-836, On the FIG. 45 cell lines, part of the CDCP1 is proteolytically cleaved in the extracellular domain; the cleavage site is not stated. The uncleaved mature protein is given.); test: binding to CDCP1+ cells (cell line not given), % Maximum against log concentration, fitted curve
T3 construct: also called the antigen; antigen positive cell-line (A427)

[7] = molecular target: T2, huCDCP1(F30-T667 Q525)-8×His_T3; test: SPR, huCDCP1(F30-T667 Q525)-8×His_T3 as analyte; mAb lot T12
[8] = system: MDA-MB-468, PC3, DU145 and OVMZ-6 cells; test: Binding to cells after CDCP1 cleavage; settings: mAbs binding membrane proximal or distal regions of CDCP1
Source text: FIG. 45E is an image of polyacrylamide gel binding assay. […] The sequences of the light chain variable region, heavy chain variable region, and CDRs (SEQ ID NOs: 15-22) of “Sequence 2” can be found in Table 2B.

**Q.** For `CC[C@@]1(O)C(=O)OCc2c1cc1n(c2=O)Cc2c-1nc1cc(F)c(C)c3c1c2[C@@H](NC(=O)[C@H](C)NC(=O)[C@@H](NC(=O)CCOCCOCCOCCOCCOCCOCCOCCOCCNC(=O)CCN1C(=O)C=CC1=O)C(C)C)CC3` [Compound 30], which “changes in hemopoietic system (red cell parameters)” value [1] is on record?
**A.** Its value is “negligible effects”.

**Q.** And the tolerability ([1]; IV once every 3 weeks, two doses)?
**A.** The tolerability was “well tolerated”.

**Q.** What about the “LC/MS peak area of released payload (Exatecan; 4NH2-Exatecan; DXd; DM1, per ADC)” value ([2]; Buffer without S9, 180 min) of the same molecule?
**A.** Its value is 26,179.

**Q.** What about the “LC/MS peak area of released payload (Exatecan; 4NH2-Exatecan; DXd; DM1, per ADC)” value ([2]; Buffer without S9, 360 min) of the same molecule?
**A.** The value was 51,267.

**Q.** And the “LC/MS peak area of released payload (Exatecan; 4NH2-Exatecan; DXd; DM1, per ADC)” value ([2]; Buffer without S9, 1440 min)?
**A.** The value was 59,452.

**Q.** What about the rate of cleavage [3] of the same molecule?
**A.** Its rate of cleavage is “slower rate compared to other TOPO1 inhibitors having Cathepsin B cleavage mechanisms”.

**Q.** For Adcetris, which “ADC cyno t1/2” value [4] is on record?
**A.** The value was 45 to 72 h.

B1: CDCP1 mAb (unconjugated IgG1 antibody targeted to CDCP1, Sequence 1) (antibody, V domains shown)
VH: EVQLLESGGGLVQPGGSLRLSCAASGFTFSNYAMNWVRQAPGKGLEWVSAISGGGGSTYYADSVKGRFTISRDNSKNTLYLQMNSLRAEDTAVYYCAKESITMVRGVMDYYGMDVWGQGTTVTVSS
VL: DIQLTQSPSFLSASVGDRVTITCRASQGISSYLAWYQQKPGKAPKLLIYAASTLQGGVPSRFSGSGSGTEFTLTISSLQPEDFATYYCQHLNRFPRTFGQGTKVEIK
notes: IgG1; also called unconjugated CDCP1-mAb; unconjugated CDCP1 mAb
**Q.** Which Kd [5] does the source give for B1 here?
**A.** Its Kd is roughly 1 nM.

**Q.** And the EC50 [6]?
**A.** The EC50 was 0.207 µg/mL.

**Q.** What about the Kd [7] of the same molecule?
**A.** Its Kd is 0.8 nM.

**Q.** And the koff [7]?
**A.** Its koff is 0.000468 s⁻¹.

**Q.** What about the kon [7] of the same molecule?
**A.** The kon was 584000 M⁻¹ s⁻¹.

B2: mAbs-CDCPA1 Sequence 1: "mAbs-CDCPA1 Sequence 1 (proximal region)" antibody binding the membrane proximal region of CDCP1 (antibody, V domains shown)
VH: EVQLLESGGGLVQPGGSLRLSCAASGFTFSNYAMNWVRQAPGKGLEWVSAISGGGGSTYYADSVKGRFTISRDNSKNTLYLQMNSLRAEDTAVYYCAKESITMVRGVMDYYGMDVWGQGTTVTVSS
VL: DIQLTQSPSFLSASVGDRVTITCRASQGISSYLAWYQQKPGKAPKLLIYAASTLQGGVPSRFSGSGSGTEFTLTISSLQPEDFATYYCQHLNRFPRTFGQGTKVEIK
**Q.** With B2 as the molecule, how does the “binding to cells with cleaved CDCP1” value [8] read?
**A.** The value was “did not show significant difference in binding to CDCP1+ cells”.
